Earlier results as cited in article PMC5429092.
pKd: −log10 of the molar value.

Molecular target: PP1 (Homo sapiens) (UniProt P62136)
Experiment: ITC

UniProt P62136, sequence (P62136 2-330): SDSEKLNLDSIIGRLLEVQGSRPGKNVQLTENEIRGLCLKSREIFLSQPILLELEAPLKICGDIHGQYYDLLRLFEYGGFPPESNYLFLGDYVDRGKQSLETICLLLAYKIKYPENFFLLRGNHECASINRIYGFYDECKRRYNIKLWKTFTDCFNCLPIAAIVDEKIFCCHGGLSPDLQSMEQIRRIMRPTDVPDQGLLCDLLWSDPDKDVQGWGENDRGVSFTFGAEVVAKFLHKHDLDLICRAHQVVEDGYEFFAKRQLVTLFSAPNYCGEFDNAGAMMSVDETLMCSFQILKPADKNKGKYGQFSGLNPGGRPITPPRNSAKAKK

PPP1R15A (from UniProt O75807)
pKd: 7.21
